Laboratory results taken from patent US10487307B2, “Culture method for pluripotent stem cells” (FUJIFILM CORPORATION, priority 2013, dated 2019).

How the values were obtained:
[1] = Evaluation of adsorbability with respect to cell culture surface (OPA fluorescence); assay type: physicochemical; settings: FIG. 1; for adsorbability with respect to the plate: 0 to 200 pmol/cm^2 added, 2 hours at 37° C., washed twice with PBS
Experimental: Each of the polypeptides of RCP-1 to RCP-11 and RCP-21 to RCP-26 obtained as above was diluted with a predetermined buffer such that they could be added to wells at a predetermined final concentration of 0 pmol/cm^2 to 200 pmol/cm^2. Thereafter, each of the polypeptides was added in an amount of 64 μL to a plasma-treated 96-well plate made of polystyrene (Tissue Culture-Treated, Falcon). Each of the polypeptides was allowed to adsorb onto the plate by being incubated for 2 hours at 37° C., and then the wells were washed twice with PBS, thereby obtaining surfaces coated with each of the polypeptides of RCP-1 to RCP-11 and RCP-21 to RCP-26.
Among the surfaces coated with each of the polypeptides obtained as above, the surfaces coated with RCP-1 and RCP-21 to RCP-26 were applied with 64 μL of a borate buffer and 64 μL of 1 N NaOH, followed by incubation for 24 hours at 80° C. and 100% humidity. After the resultant was air-cooled, 75 μL of a borate buffer was added to each well, and 50 μL of a reaction solution obtained by mixing OPA (o-phthalaldehyde: Wako Pure Chemical Industries, Ltd./methanol solution (160 mg/ml)) with N-acetyl-L-cysteine (NAC: Wako Pure Chemical Industries, Ltd.)/borate buffer solution (2 mg/ml) at a ratio of 1:100 (mass ratio) was further added thereto. After incubation for 30 minutes at 40° C., the fluorescence intensity thereof was measured by using an Envision Multilabel Counter (PerkinElmer Inc.) (excitation 355 nm/fluorescence 486 nm). A calibration curve was separately prepared from each of the polypeptide solutions so as to calculate the amount of the polypeptide adsorbed. In FIG. 1, a black rhombus indicates RCP-1, a black square indicates RCP-21, a black triangle indicates RCP-22, a black circle indicates RCP-23, a white rhombus indicates RCP-24, a white square indicates RCP-25, and a white triangle indicates RCP-26.

human iPS cells ("Tic") = assay: Cell adhesiveness evaluation 1 (ALP activity of adhesive iPS cells); assay type: cell-based; settings: added amount 200 pmol/cm^2; 30,000 cells/well, 24 hours; natural vitronectin (sample 15) = 100%; n=3
In short: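 Peptides and controls were adsorbed onto wells for 2 h at 37 °C. Single-cell human iPS cells in TeSR2 with 10 μM Y-27362 were seeded at 30,000 cells/well. After 24 h, non-adherent cells were washed off and adherent cells fixed; cell number came from ALP activity via a calibration curve. Adhesion is expressed relative to natural vitronectin (100%), n=3.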

iPS cells [2] = assay: Evaluation of maintenance of undifferentiated state (reference examples); assay type: cell-based, human
Experimental: iPS cells collected in the same manner as in <Cell adhesiveness evaluation 1> were suspended in TeSR2. The iPS cells were seeded into 6-well plate (Tissue culture-treated, Falcon), onto which each of the samples 1, 2, 5, 6, and 7 used in <Cell adhesiveness evaluation 1> was adsorbed in the same manner as in <Cell adhesiveness evaluation 1>, and cultured in a CO2 incubator at 37° C. Except for the day after the seeding, the medium was replaced every day. In the same method as described above, the cells were subcultured every six days.
After being cultured for 1 month under the conditions described above, the cells were immobilized using 4% paraformaldehyde and treated with 1% Triton-X/PBS so as to enhance the membrane permeability. After the cells were subjected to a blocking treatment using an Image IT Signal Enhancer (Invitrogen), an anti-human NANOG antibody (AF 1997, R&D Systems, Inc.), an Alexa Fluor 555 binding rabbit anti-goat IgG antibody (Invitrogen), and DAPI (4′,6-diamidino-2-phenylindole, Dojindo Molecular Technologies, Inc.) were added thereto for labeling, and the cells were imaged using a fluorescence microscope.
FIGS. 3A and 4A show the iPS cells cultured on RCP-1; FIGS. 3B and 4B show the iPS cells cultured on RCP-11; FIGS. 3C and 4C show the iPS cells cultured on natural human vitronectin; FIGS. 3D and 4D show the iPS cells cultured on rLaminin-5; and FIGS. 3E and 4E show the iPS cells cultured on rLaminin-511. The scale bar in the images indicates […]. In FIGS. 3A to 3E, the images on the left side are full images of the colony, and the images on the right side are magnified images. In FIGS. 4A to 4E, the images on the left side are images of the cells stained with DAPI, and the images on the right side are images of the cells stained with an anti-NANOG antibody. The scale bar in FIGS. 3A to 4E indicates 200 μm.

iPS cells [3] = assay: Growth evaluation, growth curves over 8 days; assay type: cell-based, human
Experimental: The iPS cells collected in the same manner as in <Cell adhesiveness evaluation 1> were seeded into a 96-well plate, onto which RCP-1, RCP-21, and natural human vitronectin were adsorbed, at a ratio of 250 cells/well and cultured for 8 days in a 5% CO2 incubator at 37° C. The number of adhesive cells after different days of culture was measured in the same manner as in <Cell adhesiveness evaluation 1>, thereby obtaining growth curves. […] In FIG. 2, a black rhombus indicates a case using RCP-1, and a black square indicates a case using RCP-21.
From the increase and decrease in the obtained number of cells, the doubling time was calculated. As a result, it was confirmed that it takes 46.4±2.1 hours for the number of cells to be doubled in a case where RCP-1 is used, and 67.7±2.1 hours in a case where RCP-21 is used.

RCP-24: comparative polypeptide, SEQ ID NO: 29; vitronectin positions 1-55 (GPLGDQESCKGRCTEGFNVDKKCQCDELCSYYQSCCTDYTAECKPQVTRGDVFTMPEDE; Vitronectin-derived Recombinant Protein (RCP-24)) [reference compound]
amount adsorbed onto the plate as fraction of the amount of polypeptides containing SEQ ID NO: 2 [1]: about ¼

B1: RCP-26: comparative polypeptide, SEQ ID NO: 31; vitronectin positions 269-459 (protein)
chain: GPLGPSQEECEGSSLSAVFEHFAMMQRDSWEDIFELLFWGRTSAGTRQPQFISRDWHGVPGQVDAAMAGRIYISGMAPRPSLAKKQRFRHRNRKGYRSQRGHSRGRNQNSRRPSRATWLSLFSSEESNLGANNYDDYRMDWLVPATCEPIQSVFFFSGDKYYRVNLRTRRVDTVDPPYPRSIAQYWLGCPAPGHL
modifications: Vitronectin-derived Recombinant Protein (RCP-26)
Cell adhesion rate (%) (human iPS cells ("Tic")): 9.4 ± 2.9% | adsorbability with respect to the plate [1]: excellent adsorbability

B2: RCP-23: comparative polypeptide, SEQ ID NO: 28; vitronectin positions 1-55, 56-129 (protein)
chain: GPLGDQESCKGRCTEGFNVDKKCQCDELCSYYQSCCTDYTAECKPQVTRGDVFTMPEDEYTVYDDGEEKNNATVHEQVGGPSLTSDLQAQSKGNPEQTPVLKPEEEAPAPEVGASKPEGIDSRPETLHPGRPQP
modifications: Vitronectin-derived Recombinant Protein (RCP-23)
amount adsorbed onto the plate as fraction of the amount of polypeptides containing SEQ ID NO: 2 [1]: about ¼

B3: RCP-21: comparative polypeptide, SEQ ID NO: 26; positions 1-459, having the sequence of human vitronectin (protein)
chain: GPLGDQESCKGRCTEGFNVDKKCQCDELCSYYQSCCTDYTAECKPQVTRGDVFTMPEDEYTVYDDGEEKNNATVHEQVGGPSLTSDLQAQSKGNPEQTPVLKPEEEAPAPEVGASKPEGIDSRPETLHPGRPQPPAEEELCSGKPFDAFTDLKNGSLFAFRGQYCYELDEKAVRPGYPKLIRDVWGIEGPIDAAFTRINCQGKTYLFKGSQYWRFEDGVLDPDYPRNISDGFDGIPDNVDAALALPAHSYSGRERVYFFKGKQYWEYQFQHQPSQEECEGSSLSAVFEHFAMMQRDSWEDIFELLFWGRTSAGTRQPQFISRDWHGVPGQVDAAMAGRIYISGMAPRPSLAKKQRFRHRNRKGYRSQRGHSRGRNQNSRRPSRATWLSLFSSEESNLGANNYDDYRMDWLVPATCEPIQSVFFFSGDKYYRVNLRTRRVDTVDPPYPRSIAQYWLGCPAPGHL
modifications: Vitronectin-derived Recombinant Protein (RCP-21)
form of iPS cell colony (iPS cells [2]; TeSR2, subcultured every six days, FIGS. 3A to 3E): form specific to undifferentiated cells | NANOG expression (iPS cells [2]; cultured for 1 month in TeSR2, anti-NANOG staining, FIGS. 4A to 4E): strongly expressed NANOG in the entirety of the colony | Cell adhesion rate (%) (human iPS cells ("Tic")): 93.5 ± 7.9% | doubling time (iPS cells [3]; 250 cells/well, cultured for 8 days): 67.7 ± 2.1 h | number of cells on Day 8 of culture as fraction of the number with RCP-1 (iPS cells [3]; FIG. 2): about ⅓

B4: RCP-25: comparative polypeptide, SEQ ID NO: 30; vitronectin positions 56-459 (protein)
chain: GPLGYTVYDDGEEKNNATVHEQVGGPSLTSDLQAQSKGNPEQTPVLKPEEEAPAPEVGASKPEGIDSRPETLHPGRPQPPAEEELCSGKPFDAFTDLKNGSLFAFRGQYCYELDEKAVRPGYPKLIRDVWGIEGPIDAAFTRINCQGKTYLFKGSQYWRFEDGVLDPDYPRNISDGFDGIPDNVDAALALPAHSYSGRERVYFFKGKQYWEYQFQHQPSQEECEGSSLSAVFEHFAMMQRDSWEDIFELLFWGRTSAGTRQPQFISRDWHGVPGQVDAAMAGRIYISGMAPRPSLAKKQRFRHRNRKGYRSQRGHSRGRNQNSRRPSRATWLSLFSSEESNLGANNYDDYRMDWLVPATCEPIQSVFFFSGDKYYRVNLRTRRVDTVDPPYPRSIAQYWLGCPAPGHL
modifications: Vitronectin-derived Recombinant Protein (RCP-25)
Cell adhesion rate (%) (human iPS cells ("Tic")): 13.2 ± 3.4% | adsorbability with respect to the plate [1]: excellent adsorbability
